# Assay results from the supplement of paper PMC11811203.
# B1: THAP1; numbered along this chain (parent)
# chain: MVQSCSAYGCKNRYDKDKPVSFHKFPLTRPSLCKEWEAAVRRKNFKPTKYSSICSEHFTPDCFKRECNNKLLKENAVPTIFLCTEPHDKKEDLLEPQEQLPPPPLPPPVSQVDAAIGLLMPPLQTPVNLSVFCDHNYTVEDTMHQRKRIHQLEQQVEKLRKKLKTAQQRCRRQERQLEKLKEVVHFQKEKDDVSERGYVILPNDYFEIVEVPA
# Variants of: B1
# Test: THAP1 transcriptional activity (GFP+/GFP- enrichment relative to wild-type constructs) (ratio to WT); higher = more THAP1 activity (PSMB5 reporter activation)
# Settings: with PSMB5 promoter-GFP reporter
# Method: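 Deep mutational scan of human THAP1. Site-saturation single amino acid variant library (residues 2-213) was expressed by lentivirus at MOI ~0.3 in THAP1-knockout HEK-293T cells carrying an endogenous PSMB5 promoter-GFP knock-in reporter. Five days post-transduction, BFP+ cells were FACS-sorted into GFP dim and GFP bright populations and variants were counted by Illumina sequencing. Activity is the GFP-bright/GFP-dim read fold change, mean of 2 replicates, divided by the mean fold change of wild-type (synonymous) constructs in the same screen pool; WT = 1.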
row,Variant,THAP1 transcriptional activity
1,R175F,0.33
2,D191E,1.36
3,D192C,0.816
4,K70G,0.0856
5,D88N,0.665
6,I80L,0.606
7,F206S,1.09
8,F206P,0.832
9,F206H,1.05
10,V193E,0.835
11,V193Y,0.789
12,V193T,1.25
13,K43R,0.716
14,K43H,0.626
15,K43V,0.726
16,K43W,0.278
17,L201V,0.62
18,L201I,0.905
19,D92R,1.57
20,D92P,1.64
21,D61K,0.217
22,Y50I,0.112
23,Y50G,0.1
24,E182D,1.34

row,Variant,THAP1 transcriptional activity
1,E182F,0.467
2,A166E,0.448
3,A166D,0.217
4,W36D,0.159
5,W36Q,0.18
6,F45C,0.027
7,F45S,0.0855
8,F45Y,0.154
9,Q124M,0.487
10,Q124D,0.637
11,Q124K,0.879
12,F63H,0.0911
13,F63I,0.134
14,G9H,0.283
15,G9F,0.148
16,I116W,0.472
17,I116A,1
18,C83Y,2.11
19,V109E,3.82
20,V109Q,1.24
21,V109F,0.884
22,V109S,1.31
23,A213M,0.984
24,E153I,0.393

row,Variant,THAP1 transcriptional activity
1,D113K,0.918
2,D113A,0.667
3,Q145H,0.747
4,Q145P,0.652
5,V183F,0.721
6,V183W,0.798
7,K158Q,0.708
8,K158N,0.391
9,Y205F,0.778
10,Y205Q,1.51
11,A7W,0.0983
12,E91F,0.403
13,E91T,0.885
14,E91Y,0.85
15,S130Y,0.1
16,L93G,1.26
17,L93D,1.14
18,L93A,1.26
19,P126F,0.178
20,P126D,1.02
21,E95R,1.65
22,L82M,0.668
23,L82H,1.27
24,S4I,0.182

row,Variant,THAP1 transcriptional activity
1,A114P,1.29
2,A114I,0.238
3,A114Q,0.985
4,K24E,0.138
5,K24N,0.0904
6,K24L,0.156
7,K24P,0.125
8,K16T,0.136
9,K16F,0.117
10,K16W,0.208
11,P60S,0.985
12,R169W,0.138
13,C170D,0.173
14,C170K,0.26
15,C170F,0.35
16,S51N,0.16
17,S51Y,0.0754
18,P101C,0.582
19,V20P,0.101
20,V20A,0.135
21,V20D,0.128
22,Q3P,0.186
23,Q3N,0.442
24,Q3Y,0.149

row,Variant,THAP1 transcriptional activity
1,F25H,0.115
2,F25R,0.106
3,F25Q,0.0935
4,P78D,0.183
5,P78T,0.283
6,P78C,0.419
7,L177V,0.404
8,L177A,0.268
9,L177P,0.192
10,L180A,0.484
11,T142I,0.34
12,R196H,1.21
13,R42E,0.118
14,A115T,0.594
15,A115M,0.233
16,N44K,0.462
17,N44H,0.574
18,L105N,1.92
19,N136H,0.131
20,Q176D,0.41
21,Q176A,0.567
22,L163K,0.168
23,L163S,0.142
24,Q155D,0.521

row,Variant,THAP1 transcriptional activity
1,Q155N,0.447
2,T125C,0.57
3,T125H,0.515
4,I53R,0.0647
5,A39H,0.601
6,A39L,0.253
7,V112T,1.06
8,V112R,0.921
9,V112D,0.804
10,V112I,0.587
11,N69F,0.109
12,N69I,0.672
13,T28V,0.231
14,E157S,1.39
15,E157M,1.03
16,M120H,0.611
17,M120R,0.835
18,P26I,0.178
19,P26G,0.0891
20,K179M,0.465
21,K179P,0.213
22,K179N,0.51
23,V199E,0.701
24,H87N,2.68

row,Variant,THAP1 transcriptional activity
1,P202C,0.722
2,P202Y,1.04
3,C62S,1.72
4,A76V,0.435
5,A76P,0.384
6,P102F,0.858
7,P102V,2.39
8,Q111N,0.81
9,Q111G,0.565
10,Q111P,0.993
11,R65H,0.327
12,K90C,1.03
13,K90P,1.06
14,E37D,0.182
15,Q97K,0.467
16,Q97V,0.752
17,E140I,1.08
18,L71D,0.74
19,H57N,0.0635
20,H57T,0.109
21,K162P,0.15
22,H23N,0.0799
23,E56P,0.0876
24,E56G,0.114

row,Variant,THAP1 transcriptional activity
1,P103D,1.44
2,P103F,0.27
3,R148C,0.26
4,R148N,0.303
5,F132D,0.363
6,C10N,0.121
7,E98N,1.21
8,C67L,0.481
9,C67P,0.13
10,C67R,0.502
11,C67M,0.594
12,R13M,0.0992
13,S21L,0.0984
14,S21N,0.152
15,S21T,0.174
16,Q154L,0.867
17,Q154R,0.653
18,D15L,0.298
19,D15N,0.605
20,D15F,0.272
21,D15Y,0.172
22,G197D,0.656
23,L100I,1.56
24,P96L,1.58

row,Variant,THAP1 transcriptional activity
1,P96N,2.72
2,T165V,0.976
3,T165R,0.898
4,P19C,0.529
5,P19M,0.208
6,N68C,0.157
7,N68Q,0.193
8,N68M,0.141
9,N68Y,0.125
10,E35Q,1.42
11,E178G,0.795
12,L94E,1.42
13,P47N,0.138
14,P47G,0.111
15,Q168R,0.446
16,Q168N,0.781
17,L129F,1.16
18,L129H,1
19,L129D,0.405
20,G117P,1.14
21,H135R,0.0891
22,K49W,0.1
23,D134K,0.141
24,D134W,0.177

row,Variant,THAP1 transcriptional activity
1,K161C,0.37
2,A38W,0.234
3,A38G,0.417
4,Y8G,0.241
5,T48V,0.12
6,T48H,0.102
7,T48A,0.107
8,E66W,1.25
9,E66K,0.629
10,E207A,0.721
11,E207F,0.867
12,E207P,0.59
13,Y14D,0.122
14,Y14W,0.851
15,Y14T,0.0786
16,D204M,0.901
17,D204G,0.311
18,I208R,0.751
19,I208N,0.926
20,E189D,1.2
21,D17I,0.0905
22,D17R,1.11
23,V184D,1.11
24,V184N,1.19

row,Variant,THAP1 transcriptional activity
1,V184T,1.1
2,M143E,0.983
3,S52M,0.633
4,K11M,0.124
5,R29M,0.162
6,R29Y,0.118
7,R29N,0.536
8,L119Q,0.718
9,K64F,0.102
10,E174R,1.48
11,C133I,1.29
12,C133R,1.24
13,C133D,0.73
14,V77C,0.434
15,R172E,0.34
16,R172A,0.396
17,R172I,0.34
18,Q167M,0.699
19,Q167W,0.235
20,Q167H,0.575
21,K73R,0.622
22,Q173E,0.149
23,Y198W,0.672
24,Y198D,0.763

row,Variant,THAP1 transcriptional activity
1,Y198V,1.01
2,P86T,0.609
3,P86A,0.874
4,F186M,1.32
5,F186Y,1.36
6,D141E,1.51
7,N12I,0.0667
8,L32M,0.357
9,L32T,0.295
10,L32R,0.31
11,P106M,1.23
12,S110A,0.787
13,F58Y,0.153
14,E210P,0.35
15,E210D,1.07
16,K164D,0.173
17,K164S,0.326
18,L152F,0.236
19,P30Q,0.583
20,P30N,0.33
21,E195C,0.903
22,E195N,0.808
23,S55L,0.106
24,S55W,0.0398

row,Variant,THAP1 transcriptional activity
1,S194G,1.35
2,S194Q,1.42
3,V40E,0.113
4,V40Q,0.142
5,V40A,0.221
6,V40F,0.119
7,K89W,0.592
8,K89E,1.6
9,K46Y,0.335
10,K46A,0.436
11,F81R,0.298
12,T84G,0.785
13,T84S,0.852
14,P212S,1.34
15,Q187D,0.783
16,C5I,0.0585
17,C5Y,0.118
18,C54H,0.0812
19,Y137G,0.161
20,Y137I,0.109
21,N75L,0.286
22,N75R,0.829
23,P104A,1.09
24,P104G,1.2

row,Variant,THAP1 transcriptional activity
1,P104E,1.85
2,R171I,0.359
3,P107R,0.608
4,P107G,1.11
5,T79A,0.438
6,T79N,0.622
7,V2S,0.297
8,V2E,0.154
9,V2F,0.161
10,V2Q,0.178
11,F22G,0.0652
12,L27S,0.183
13,E74D,0.59
14,H185S,1.02
15,H185L,0.359
16,E85C,0.285
17,E85W,0.155
18,R41C,0.763
19,R41N,0.809
20,R41M,0.475
21,R41S,0.809
22,V131Y,0.27
